Experimental findings from article PMC4722774, “Characterization of a cold-active esterase from Serratia sp. and improvement of thermostability by directed evolution” (BMC Biotechnology, 2016) are described below.

In series [1] the test system is T1, CC(=O)Oc1ccc([N+](=O)[O-])cc1.
T1 construct: full-length 302 residues, no signal peptide predicted; GST fusion (pGEX-6P-1) in E. coli BL21 (DE3), GST cut off by 3C protease; ~32 kDa
Description: purified protein. The note with it: pH 8.5, 50 mM Tris-HCl, 10 °C, 0.01-0.3 mM substrate. It counts as biochemical, Serratia sp. HZ15.

Substrate in the series “purified protein”: CC(=O)Oc1ccc([N+](=O)[O-])cc1
Kind of series: purified protein. Particulars: pH 8.5, 50 mM Tris-HCl, 10 °C, 0.01-0.3 mM substrate. It counts as biochemical, Serratia sp. HZ15.

As a reminder, the Km is the concentration of substrate that gives half-maximal velocity. What is called kcat is the number of substrate molecules converted per active site and unit of time at saturation. As a reminder, the kcat/Km is the turnover number divided by the Michaelis constant. As for “EstS (Serratia sp. HZ15; A43V/D147N/R116W)”, in series [1], the Km stood at 87.59 ± 2.4 µM, the kcat turned out to be 2500 s⁻¹ and the kcat/Km stood at 2.86e+07 ± 3.7e+06 M⁻¹ s⁻¹.

B1: EstS (Serratia sp. HZ15) (protein)
chain: MPLDPQIARFLAEAAQAPAPASLSEMREVAHAGLLALQGEAEASGGVRDGWVTADDGRAIAIRAYTPGGATPGEPLPAMLYAHGGGWCLGSLALYDRPCQALANATGRVILSVDYRLAPEYPYPRPLEDVYQALCGVVERADEWGVDVARMAVGGDSAGGNLAAAVALLARDRKGPQIEHQLLLYPALSRAMDTASYKEYAQGYYLTREVMAFCWNTYLGEADKPQDPYAEPLHAPMLQRLPPATILSCEYDPLRDEAELYAKRLQEAGVAVRCERLPGMVHACIHMLGLTPAARVLFDKVG
notes: full-length 302 residues, no signal peptide predicted; GST fusion (pGEX-6P-1) in E. coli BL21 (DE3), GST cut off by 3C protease; ~32 kDa
On to B1, for which, in “purified protein”, the Km was 74.02 ± 1.9 µM, the kcat came to 2340 s⁻¹ and the kcat/Km was 3.16e+07 ± 3.1e+06 M⁻¹ s⁻¹.
